Laboratory results: the supplement of paper PMC5998384

How the values were obtained:
[1] = test system: HeLa Kyoto; assay: solubility in G1/S (NP-40 vs SDS abundance) (log2 ratio); higher = more soluble; conditions: cell cycle stage: G1/S
[2] = test system: HeLa Kyoto; assay: melting temperature (median over replicates), in situ; higher = more thermally stable
[3] = test system: HeLa Kyoto; assay: solubility change mitosis vs G1/S (difference of NP-40 vs SDS log2 ratios) (log2 ratio difference); higher = more soluble in mitosis
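For melting temperature (median over replicates), in situ in this document: HeLa Kyoto cells synchronized by double thymidine or nocodazole block, proteins quantified by TMT10plex mass spectrometry, three independent biological replicates.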
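For solubility change mitosis vs G1/S (difference of NP-40 vs SDS log2 ratios) in this document: synchronized HeLa Kyoto cells (double thymidine block for G1/S, nocodazole release for mitosis), protein amounts in NP-40 versus SDS lysates quantified by mass spectrometry, three biological replicates.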
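For solubility in G1/S (NP-40 vs SDS abundance) in this document: HeLa Kyoto cells arrested at G1/S by double thymidine block, proteins quantified by TMT10plex mass spectrometry in mild NP-40 versus SDS extracts, three biological replicates.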

| Sequence | solubility in G1/S (log2) [1] | melting temperature ([2]; cell cycle stage: G1/S) | melting temperature ([2]; cell cycle stage: mitosis) | solubility change mitosis (log2) [3] |
| --- | --- | --- | --- | --- |
| MAAPWASLRLVAPMWNGRIRGIHRLGAAVAPEGNQKKKRTILQFLTNYFYDVEALRDYLLQREMYKVHEKNRSYTWLEKQHGPYGAGAFFILKQGGAVKFRDKEWIRPDKYGHFSQEFWNFCEVPVEAVDAGDCDINYEGLDNLLRLKELQSLSLQRCCHVDDWCLSRLYPLADSLQELSLAGCPRISERGLACLHHLQNLRRLDISDLPAVSNPGLTQILVEEMLPNCEVVGVDWAEGLKSGPEEQPRDTASPVPA [ATP5SL] | 0.174 | 52.9 °C | 52 °C | -0.0178 |
| MADDFGFFSSSESGAPEAAEEDPAAAFLAQQESEIAGIENDEGFGAPAGSHAAPAQPGPTSGAGSEDMGTTVNGDVFQEANGPADGYAAIAQADRLTQEPESIRKWREEQRKRLQELDAASKVTEQEWREKAKKDLEEWNQRQSEQVEKNKINNRIADKAFYQQPDADIIGYVASEEAFVKESKEETPGTEWEKVAQLCDFNPKSSKQCKDVSRLRSVLMSLKQTPLSR [CLTB] | 0.159 | 56.3 °C | 53.3 °C | 0.651 |
| MADEATRRVVSEIPVLKTNAGPRDRELWVQRLKEEYQSLIRYVENNKNADNDWFRLESNKEGTRWFGKCWYIHDLLKYEFDIEFDIPITYPTTAPEIAVPELDGKTAKMYRGGKICLTDHFKPLWARNVPKFGLAHLMALGLGPWLAVEIPDLIQKGVIQHKEKCNQ [UFC1] | 0.134 | 53.3 °C | 52.9 °C | 0.23 |
| MADQRQRSLSTSGESLYHVLGLDKNATSDDIKKSYRKLALKYHPDKNPDNPEAADKFKEINNAHAILTDATKRNIYDKYGSLGLYVAEQFGEENVNTYFVLSSWWAKALFVFCGLLTCCYCCCCLCCCFNCCCGKCKPKAPEGEETEFYVSPEDLEAQLQSDEREATDTPIVIQPASATETTQLTADSHPSYHTDGFN [DNAJC5] | 0.0289 | 56 °C | 53.5 °C | -0.273 |
| MAEPSVESSSPGGSATSDDHEFDPSADMLVHDFDDERTLEEEEMMEGETNFSSEIEDLAREGDMPIHELLSLYGYGSTVRLPEEDEEEEEEEEEGEDDEDADNDDNSGCSGENKEENIKDSSGQEDETQSSNDDPSQSVASQDAQEIIRPRRCKYFDTNSEVEEESEEDEDYIPSEDWKKEIMVGSMFQAEIPVGICRYKENEKVYENDDQLLWDPEYLPEDKVIIFLKDASRRTGDEKGVEAIPEGSHIKDNEQALYELVKCNFDTEEALRRLRFNVKAAREELSVWTEEECRNFEQGLKAYGKDFHLIQANKVRTRSVGECVAFYYMWKKSERYDFFAQQTRFGKKKYNLHPGVTDYMDRLLDESESAASSRAPSPPPTASNSSNSQSEKEDGTVSTANQNGVSSNGPGEILNKEEVKVEGLHINGPTGGNKKPLHADMDTNGYETDNLTTDPKLAHMTARNENDFDEKSERPAKRRRVNSNGKESPGSSEFFQEAVSHGKFEELENTDD [MIER1] | 0.00102 | 53.4 °C | 52.2 °C | -0.0394 |
| MAERPEDLNLPNAVITRIIKEALPDGVNISKEARSAISRAASVFVLYATSCANNFAMKGKRKTLNASDVLSAMEEMEFQRFVTPLKEALEAYRREQKGKKEASEQKKKDKDKKTDSEEQDKSRDEDNDEDEERLEEEEQNEEEEVDN [POLE3] | 0.357 | 49.2 °C |  | 0.5 |
| MAGVSYAAPWWVSLLHRLPHFDLSWEATSSQFRPEDTDYQQALLLLGAAALACLALDLLFLLFYSFWLCCRRRKSEEHLDADCCCTAWCVIIATLVCSAGIAVGFYGNGETSDGIHRATYSLRHANRTVAGVQDRVWDTAVGLNHTAEPSLQTLERQLAGRPEPLRAVQRLQGLLETLLGYTAAIPFWRNTAVSLEVLAEQVDLYDWYRWLGYLGLLLLDVIICLLVLVGLIRSSKGILVGVCLLGVLALVISWGALGLELAVSVGSSDFCVDPDAYVTKMVEEYSVLSGDILQYYLACSPRAANPFQQKLSGSHKALVEMQDVVAELLRTVPWEQPATKDPLLRVQEVLNGTEVNLQHLTALVDCRSLHLDYVQALTGFCYDGVEGLIYLALFSFVTALMFSSIVCSVPHTWQQKRGPDEDGEEEAAPGPRQAHDSLYRVHMPSLYSCGSSYGSETSIPAAAHTVSNAPVTEYMSQNANFQNPRCENTPLIGRESPPPSYTSSMRAKYLATSQPRPDSSGSH [TTYH3] | 0.256 | 55.3 °C | 56.1 °C | -0.146 |
| MAHAGGGSGGSGAGGPAGRGLSGARWGRSGSAGHEKLPVHVEDALTYLDQVKIRFGSDPATYNGFLEIMKEFKSQSIDTPGVIRRVSQLFHEHPDLIVGFNAFLPLGYRIDIPKNGKLNIQSPLTSQENSHNHGDGAEDFKQQVPYKEDKPQVPLESDSVEFNNAISYVNKIKTRFLDHPEIYRSFLEILHTYQKEQLNTRGRPFRGMSEEEVFTEVANLFRGQEDLLSEFGQFLPEAKRSLFTGNGPCEMHSVQKNEHDKTPEHSRKRSRPSLLRPVSAPAKKKMKLRGTKDLSIAAVGKYGTLQEFSFFDKVRRVLKSQEVYENFLRCIALFNQELVSGSELLQLVSPFLGKFPELFAQFKSFLGVKELSFAPPMSDRSGDGISREIDYASCKRIGSSYRALPKTYQQPKCSGRTAICKELDHWTLLQGSWTDDYCMSKFKNTCWIPGYSAGVLNDTWVSFPSWSEDSTFVSSKKTPYEEQLHRCEDERFELDVVLETNLATIRVLESVQKKLSRMAPEDQEKFRLDDSLGGTSEVIQRRAIYRIYGDKAPEIIESLKKNPVTAVPVVLKRLKAKEEEWREAQQGFNKIWREQYEKAYLKSLDHQAVNFKQNDTKALRSKSLLNEIESVYDEHQEQHSEGRSAPSSEPHLIFVYEDRQILEDAAALISYYVKRQPAIQKEDQGTIHQLLHQFVPSLFFSQQLDLGASEESADEDRDSPQGQTTDPSERKKPAPGPHSSPPEEKGAFGDAPATEQPPLPPPAPHKPLDDVYSLFFANNNWYFFLRLHQTLCSRLLKIYRQAQKQLLEYRTEKEREKLLCEGRREKGSDPAMELRLKQPSEVELEEYYPAFLDMVRSLLEGSIDPTQYEDTLREMFTIHAYVGFTMDKLVQNIARQLHHLVSDDVCLKVVELYLNEKKRGAAGGNLSSRCVRAARETSYQWKAERCMADENCFKVMFLQRKGQVIMTIELLDTEEAQTEDPVEVQHLARYVEQYVGTEGASSSPTEGFLLKPVFLQRNLKKFRRRWQSEQARALRGEARSSWKRLVGVESACDVDCRFKLSTHKMVFIVNSEDYMYRRGTLCRAKQVQPLVLLRHHQHFEEWHSRWLEDNVTVEAASLVQDWLMGEEDEDMVPCKTLCETVHVHGLPVTRYRVQYSRRPASP [SIN3B] | -0.231 | 47.9 °C | 49.3 °C | 0.0177 |
| MALLFLLPLVMQGVSRAEMGTADLGPSSVPTPTNVTIESYNMNPIVYWEYQIMPQVPVFTVEVKNYGVKNSEWIDACINISHHYCNISDHVGDPSNSLWVRVKARVGQKESAYAKSEEFAVCRDGKIGPPKLDIRKEEKQIMIDIFHPSVFVNGDEQEVDYDPETTCYIRVYNVYVRMNGSEIQYKILTQKEDDCDEIQCQLAIPVSSLNSQYCVSAEGVLHVWGVTTEKSKEVCITIFNSSIKGSLWIPVVAALLLFLVLSLVFICFYIKKINPLKEKSIILPKSLISVVRSATLETKPESKYVSLITSYQPFSLEKEVVCEEPLSPATVPGMHTEDNPGKVEHTEELSSITEVVTTEENIPDVVPGSHLTPIERESSSPLSSNQSEPGSIALNSYHSRNCSESDHSRNGFDTDSSCLESHSSLSDSEFPPNNKGEIKTEGQELITVIKAPTSFGYDKPHVLVDLLVDDSGKESLIGYRPTEDSKEFS [IFNGR1] | 0.103 |  | 55.3 °C | -0.126 |
| MALTVDVAGPAPWGFRITGGRDFHTPIMVTKVAERGKAKDADLRPGDIIVAINGESAEGMLHAEAQSKIRQSPSPLRLQLDRSQATSPGQTNGDSSLEVLATRFQGSVRTYTESQSSLRSSYSSPTSLSPRAGSPFSPPPSSSSLTGEAAISRSFQSLACSPGLPAADRLSYSGRPGSRQAGLGRAGDSAVLVLPPSPGPRSSRPSMDSEGGSLLLDEDSEVFKMLQENREGRAAPRQSSSFRLLQEALEAEERGGTPAFLPSSLSPQSSLPASRALATPPKLHTCEKCSTSIANQAVRIQEGRYRHPGCYTCADCGLNLKMRGHFWVGDELYCEKHARQRYSAPATLSSRA [PDLIM2] | 0.17 | 55.6 °C | 53.8 °C | -0.043 |
| MALVRGAEPAAGPSRWLPTHVQVTVLRARGLRGKSSGAGSTSDAYTVIQVGREKYSTSVVEKTHGCPEWREECSFELPPGALDGLLRAQEADAGPAPWAASSAAACELVLTTMHRSLIGVDKFLGQATVALDEVFGAGRAQHTQWYKLHSKPGKKEKERGEIEVTIQFTRNNLSASMFDLSMKDKPRSPFSKIRDKMKGKKKYDLESASAILPSSAIEDPDLGSLGKMGKAKGFFLRNKLRKSSLTQSNTSLGSDSTLSSASGSLAYQGPGAELLTRSPSRSSWLSTEGGRDSAQSPKLFTHKRTYSDEANQMRVAPPRALLDLQGHLDAASRSSLCVNGSHIYNEEPQGPVRHRSSISGSLPSSGSLQAVSSRFSEEGPRSTDDTWPRGSRSNSSSEAVLGQEELSAQAKVLAPGASHPGEEEGARLPEGKPVQVATPIVASSEAVAEKEGARKEERKPRMGLFHHHHQGLSRSELGRRSSLGEKGGPILGASPHHSSSGEEKAKSSWFGLREAKDPTQKPSPHPVKPLSAAPVEGSPDRKQSRSSLSIALSSGLEKLKTVTSGSIQPVTQAPQAGQMVDTKRLKDSAVLDQSAKYYHLTHDELISLLLQRERELSQRDEHVQELESYIDRLLVRIMETSPTLLQIPPGPPK [RAB11FIP5] | 0.0739 | 50.1 °C | 49.3 °C | -0.217 |
| MAPLRFSANLSWLFPELSGLPARVRAAGSSGFEAVEVAWPYAETPEALARAAREAGLRLVLINTPPGDQEKGEMGLGAVPGRQAAFREGLEQAVRYAKALGCPRIHLMAGRVPQGADRIAVKAEMEAVFLENLRHAAGVLAQEDLVGLLEPINTRITDPQYFLDTPQQAAAILQKVGRPNLQLQMDIFHWQIMDGNLTGNIREFLPIVGHVQVAQVPGRGEPSSPGELNFPYLFQLLEDEGYKGFVGCEYQPRGDTVEGLSWLRSYWDRRGHPEAGQ [HYI] | 0.344 | 55.2 °C | 54.7 °C | 0.234 |
| MAPRGRKRKAEAAVVAVAEKREKLANGGEGMEEATVVIEHCTSURVYGRNAAALSQALRLEAPELPVKVNPTKPRRGSFEVTLLRPDGSSAELWTGIKKGPPRKLKFPEPQEVVEELKKYLS [SELH] | -0.0665 |  | 52.2 °C | 0.17 |
| MAQKRPACTLKPECVQQLLVCSQEAKKSAYCPYSHFPVGAALLTQEGRIFKGCNIENACYPLGICAERTAIQKAVSEGYKDFRAIAIASDMQDDFISPCGACRQVMREFGTNWPVYMTKPDGTYIVMTVQELLPSSFGPEDLQKTQ [CDA] | 0.37 | 54.4 °C | 54 °C | -0.0534 |
| MASREEVLALQAEVAQREEELNSLKQKLASALLAEQEPQPERLVPVSPLPPKAALSRDEILRYSRQLVLPELGVHGQLRLGTACVLIVGCGGLGCPLAQYLAAAGVGRLGLVDYDVVEMSNLARQVLHGEALAGQAKAFSAAASLRRLNSAVECVPYTQALTPATALDLVRRYDVVADCSDNVPTRYLVNDACVLAGRPLVSASALRFEGQITVYHYDGGPCYRCIFPQPPPAETVTNCADGGVLGVVTGVLGCLQALEVLKIAAGLGPSYSGSLLLFDALRGHFRSIRLRSRRLDCAACGERPTVTDLLDYEAFCGSSATDKCRSLQLLSPEERVSVTDYKRLLDSGAFHLLLDVRPQVEVDICRLPHALHIPLKHLERRDAESLKLLKEAIWEEKQGTQEGAAVPIYVICKLGNDSQKAVKILQSLSAAQELDPLTVRDVVGGLMAWAAKIDGTFPQY [MOCS3] | 0.156 | 51.3 °C | 49.5 °C | -0.0562 |
| MASRGKTETSKLKQNLEEQLDRLMQQLQDLEECREELDTDEYEETKKETLEQLSEFNDSLKKIMSGNMTLVDELSGMQLAIQAAISQAFKTPEVIRLFAKKQPGQLRTRLAEMDRDLMVGKLERDLYTQQKVEILTALRKLGEKLTADDEAFLSANAGAILSQFEKVSTDLGSGDKILALASFEVEKTKK [LZIC] | 0.367 | 54.1 °C | 53.2 °C | 0.544 |
